In publication PMC9482650, “Quantitative fragmentomics allow affinity mapping of interactomes” (Nature Communications, 2022):

Target: AHNAK1, Q09666
Assay: holdup assay
Set-up: key: below the threshold = too weak to quantify, mostly under pKd 3.1 to 4
Settings: plain residues with an end cap or a label only (N-terminal biotin on a linker: ado-ado)

AHNAK1, Q09666, sequence (Q09666 4-100): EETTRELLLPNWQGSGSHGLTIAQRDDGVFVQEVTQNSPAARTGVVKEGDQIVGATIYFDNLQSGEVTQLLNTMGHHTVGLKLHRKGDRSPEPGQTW

Binder	pKd
NASRTRITFV [MCM7, P33993]	below the threshold
QSPPNIYYKV [EFNB3, Q15768]	below the threshold
PAPGQHTTQI [STK16, O75716]	below the threshold

Target: T1, DFNB31_1, Q9P202
T1 sequence (Q9P202 135-233, limits assumed, looked up): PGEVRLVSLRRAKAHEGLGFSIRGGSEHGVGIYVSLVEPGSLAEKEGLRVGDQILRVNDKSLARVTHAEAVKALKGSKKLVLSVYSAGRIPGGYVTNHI
Assay: holdup assay
Set-up: key: below the threshold = too weak to quantify, mostly under pKd 3.1 to 4
Settings: plain residues with an end cap or a label only (N-terminal biotin on a linker: ado-ado)

Binder	pKd
NASRTRITFV [MCM7, P33993]	below the threshold
QSPPNIYYKV [EFNB3, Q15768]	3.55
PAPGQHTTQI [STK16, O75716]	4.57

Target: DLG1_3, Q12959
Sequence (Q12959 457-571): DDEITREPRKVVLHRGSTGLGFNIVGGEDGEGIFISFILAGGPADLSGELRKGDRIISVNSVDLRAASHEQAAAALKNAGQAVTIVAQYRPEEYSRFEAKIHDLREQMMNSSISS
Assay: holdup assay
Set-up: key: below the threshold = too weak to quantify, mostly under pKd 3.1 to 4
Settings: plain residues with an end cap or a label only (N-terminal biotin on a linker: ado-ado)

Binder	pKd
NASRTRITFV [MCM7, P33993]	4.12
QSPPNIYYKV [EFNB3, Q15768]	3.72
PAPGQHTTQI [STK16, O75716]	3.71

Target: T2, DLG3_1, Q92796
T2 sequence (Q92796 125-227, limits assumed, looked up): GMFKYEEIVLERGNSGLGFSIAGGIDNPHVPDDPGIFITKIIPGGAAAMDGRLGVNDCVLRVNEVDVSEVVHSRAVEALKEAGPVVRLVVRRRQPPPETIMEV
Assay: holdup assay
Set-up: key: below the threshold = too weak to quantify, mostly under pKd 3.1 to 4
Settings: plain residues with an end cap or a label only (N-terminal biotin on a linker: ado-ado)

Binder	pKd
NASRTRITFV [MCM7, P33993]	4.19
QSPPNIYYKV [EFNB3, Q15768]	below the threshold
PAPGQHTTQI [STK16, O75716]	below the threshold

Target: T3, DLG3_2, Q92796
T3 sequence (Q92796 221-321, limits assumed, looked up): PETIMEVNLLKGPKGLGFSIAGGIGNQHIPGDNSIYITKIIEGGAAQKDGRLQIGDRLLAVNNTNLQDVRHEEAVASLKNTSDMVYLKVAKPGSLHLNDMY
Assay: holdup assay
Set-up: key: below the threshold = too weak to quantify, mostly under pKd 3.1 to 4
Settings: plain residues with an end cap or a label only (N-terminal biotin on a linker: ado-ado)

Binder	pKd
NASRTRITFV [MCM7, P33993]	4.75
QSPPNIYYKV [EFNB3, Q15768]	below the threshold
PAPGQHTTQI [STK16, O75716]	4.11

Target: FRMPD2_2, Q68DX3
Sequence (Q68DX3 944-1038): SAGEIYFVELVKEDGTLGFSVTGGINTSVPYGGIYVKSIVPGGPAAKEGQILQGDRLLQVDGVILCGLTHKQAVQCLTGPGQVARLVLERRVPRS
Assay: holdup assay
Set-up: key: below the threshold = too weak to quantify, mostly under pKd 3.1 to 4
Settings: plain residues with an end cap or a label only (N-terminal biotin on a linker: ado-ado)

Binder	pKd
NASRTRITFV [MCM7, P33993]	5.11
QSPPNIYYKV [EFNB3, Q15768]	below the threshold
PAPGQHTTQI [STK16, O75716]	3.48

Target: FRMPD2_3, Q68DX3
Sequence (Q68DX3 1073-1166): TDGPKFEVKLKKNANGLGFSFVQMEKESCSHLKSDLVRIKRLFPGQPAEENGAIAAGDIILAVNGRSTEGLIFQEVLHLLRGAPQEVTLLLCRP
Assay: holdup assay
Set-up: key: below the threshold = too weak to quantify, mostly under pKd 3.1 to 4
Settings: plain residues with an end cap or a label only (N-terminal biotin on a linker: ado-ado)

Binder	pKd
NASRTRITFV [MCM7, P33993]	below the threshold
QSPPNIYYKV [EFNB3, Q15768]	below the threshold
PAPGQHTTQI [STK16, O75716]	below the threshold

Target: GORASP2, Q9H8Y8
Assay: holdup assay
Set-up: key: below the threshold = too weak to quantify, mostly under pKd 3.1 to 4
Settings: plain residues with an end cap or a label only (N-terminal biotin on a linker: ado-ado)

Binder	pKd
NASRTRITFV [MCM7, P33993]	5.38
QSPPNIYYKV [EFNB3, Q15768]	4.99
PAPGQHTTQI [STK16, O75716]	3.54

Target: Inadl_10, Q8NI35
Sequence (Q8NI35 1673-1763): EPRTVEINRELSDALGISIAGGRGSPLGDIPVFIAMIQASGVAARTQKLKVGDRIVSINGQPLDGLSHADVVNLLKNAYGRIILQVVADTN
Assay: holdup assay
Set-up: key: below the threshold = too weak to quantify, mostly under pKd 3.1 to 4
Settings: plain residues with an end cap or a label only (N-terminal biotin on a linker: ado-ado)

Binder	pKd
NASRTRITFV [MCM7, P33993]	below the threshold
QSPPNIYYKV [EFNB3, Q15768]	below the threshold
PAPGQHTTQI [STK16, O75716]	below the threshold

Target: Inadl_3, Q8NI35
Sequence (Q8NI35 359-469): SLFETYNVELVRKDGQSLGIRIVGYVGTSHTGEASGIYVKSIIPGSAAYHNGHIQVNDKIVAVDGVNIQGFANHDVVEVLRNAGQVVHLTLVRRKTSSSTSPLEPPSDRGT
Assay: holdup assay
Set-up: key: below the threshold = too weak to quantify, mostly under pKd 3.1 to 4
Settings: plain residues with an end cap or a label only (N-terminal biotin on a linker: ado-ado)

Binder	pKd
NASRTRITFV [MCM7, P33993]	below the threshold
QSPPNIYYKV [EFNB3, Q15768]	3.5
PAPGQHTTQI [STK16, O75716]	below the threshold

Target: Inadl_9, Q8NI35
Sequence (Q8NI35 1530-1615): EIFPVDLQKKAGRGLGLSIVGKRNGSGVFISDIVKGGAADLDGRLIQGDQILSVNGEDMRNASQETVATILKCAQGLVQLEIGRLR
Assay: holdup assay
Set-up: key: below the threshold = too weak to quantify, mostly under pKd 3.1 to 4
Settings: plain residues with an end cap or a label only (N-terminal biotin on a linker: ado-ado)

Binder	pKd
NASRTRITFV [MCM7, P33993]	4.11
QSPPNIYYKV [EFNB3, Q15768]	3.53
PAPGQHTTQI [STK16, O75716]	below the threshold

Target: LIMK2, P53671
Sequence (P53671 143-248): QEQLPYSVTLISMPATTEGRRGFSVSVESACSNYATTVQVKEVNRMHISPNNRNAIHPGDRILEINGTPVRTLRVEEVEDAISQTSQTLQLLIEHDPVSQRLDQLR
Assay: holdup assay
Set-up: key: below the threshold = too weak to quantify, mostly under pKd 3.1 to 4
Settings: plain residues with an end cap or a label only (N-terminal biotin on a linker: ado-ado)

Binder	pKd
NASRTRITFV [MCM7, P33993]	below the threshold
QSPPNIYYKV [EFNB3, Q15768]	below the threshold
PAPGQHTTQI [STK16, O75716]	below the threshold

Target: T4, LIN7A, O14910
T4 sequence (O14910 103-200, limits assumed, looked up): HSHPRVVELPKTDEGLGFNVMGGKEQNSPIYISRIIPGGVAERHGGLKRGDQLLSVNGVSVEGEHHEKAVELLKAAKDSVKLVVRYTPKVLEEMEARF
Assay: holdup assay
Set-up: key: below the threshold = too weak to quantify, mostly under pKd 3.1 to 4
Settings: plain residues with an end cap or a label only (N-terminal biotin on a linker: ado-ado)

Binder	pKd
NASRTRITFV [MCM7, P33993]	below the threshold
QSPPNIYYKV [EFNB3, Q15768]	below the threshold
PAPGQHTTQI [STK16, O75716]	below the threshold

Target: LNX1_2, Q8TBB1
Sequence (Q8TBB1 371-470): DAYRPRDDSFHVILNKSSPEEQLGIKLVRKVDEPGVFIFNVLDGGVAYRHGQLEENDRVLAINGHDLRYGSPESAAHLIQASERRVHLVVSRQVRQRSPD
Assay: holdup assay
Set-up: key: below the threshold = too weak to quantify, mostly under pKd 3.1 to 4
Settings: plain residues with an end cap or a label only (N-terminal biotin on a linker: ado-ado)

Binder	pKd
NASRTRITFV [MCM7, P33993]	4.06
QSPPNIYYKV [EFNB3, Q15768]	3.74
PAPGQHTTQI [STK16, O75716]	below the threshold

Target: MAGI1_2, Q96QZ7
Sequence (Q96QZ7 456-580): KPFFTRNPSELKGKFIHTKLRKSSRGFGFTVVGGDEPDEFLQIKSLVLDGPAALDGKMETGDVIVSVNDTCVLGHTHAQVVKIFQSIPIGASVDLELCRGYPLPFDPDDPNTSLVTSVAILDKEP
Assay: holdup assay
Set-up: key: below the threshold = too weak to quantify, mostly under pKd 3.1 to 4
Settings: plain residues with an end cap or a label only (N-terminal biotin on a linker: ado-ado)

Binder	pKd
NASRTRITFV [MCM7, P33993]	4.71
QSPPNIYYKV [EFNB3, Q15768]	below the threshold
PAPGQHTTQI [STK16, O75716]	below the threshold

Target: MAGI2_4, Q86UL8
Sequence (Q86UL8 772-865): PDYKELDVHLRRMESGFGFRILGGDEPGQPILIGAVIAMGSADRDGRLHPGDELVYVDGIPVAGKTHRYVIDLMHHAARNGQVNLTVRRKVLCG
Assay: holdup assay
Set-up: key: below the threshold = too weak to quantify, mostly under pKd 3.1 to 4
Settings: plain residues with an end cap or a label only (N-terminal biotin on a linker: ado-ado)

Binder	pKd
NASRTRITFV [MCM7, P33993]	3.82
QSPPNIYYKV [EFNB3, Q15768]	3.69
PAPGQHTTQI [STK16, O75716]	3.5

Target: T5, MPDZ_5, O75970
T5 sequence (O75970 695-796, limits assumed, looked up): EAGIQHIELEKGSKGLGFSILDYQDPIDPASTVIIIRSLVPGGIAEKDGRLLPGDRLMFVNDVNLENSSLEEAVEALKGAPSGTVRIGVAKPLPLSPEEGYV
Assay: holdup assay
Set-up: key: below the threshold = too weak to quantify, mostly under pKd 3.1 to 4
Settings: plain residues with an end cap or a label only (N-terminal biotin on a linker: ado-ado)

Binder	pKd
NASRTRITFV [MCM7, P33993]	4.37
QSPPNIYYKV [EFNB3, Q15768]	below the threshold
PAPGQHTTQI [STK16, O75716]	below the threshold

Target: T6, NHERF3_3, Q5T2W1
T6 sequence (Q5T2W1 238-333, limits assumed, looked up): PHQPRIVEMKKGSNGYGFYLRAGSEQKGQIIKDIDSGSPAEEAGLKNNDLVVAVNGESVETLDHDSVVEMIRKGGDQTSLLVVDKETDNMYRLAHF
Assay: holdup assay
Set-up: key: below the threshold = too weak to quantify, mostly under pKd 3.1 to 4
Settings: plain residues with an end cap or a label only (N-terminal biotin on a linker: ado-ado)

Binder	pKd
NASRTRITFV [MCM7, P33993]	3.53
QSPPNIYYKV [EFNB3, Q15768]	below the threshold
PAPGQHTTQI [STK16, O75716]	below the threshold

Target: NHERF4_1, Q86UT5-2
Sequence (Q86UT5 other isoform, or with tags, fused parts or gaps): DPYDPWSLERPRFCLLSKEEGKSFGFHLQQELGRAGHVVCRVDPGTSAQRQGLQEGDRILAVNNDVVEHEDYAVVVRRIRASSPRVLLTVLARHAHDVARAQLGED
Assay: holdup assay
Set-up: key: below the threshold = too weak to quantify, mostly under pKd 3.1 to 4
Settings: plain residues with an end cap or a label only (N-terminal biotin on a linker: ado-ado)

Binder	pKd
NASRTRITFV [MCM7, P33993]	4.12
QSPPNIYYKV [EFNB3, Q15768]	below the threshold
PAPGQHTTQI [STK16, O75716]	below the threshold

Target: T7, PTPN13_1, Q12923
T7 sequence (Q12923 1088-1188, limits assumed, looked up): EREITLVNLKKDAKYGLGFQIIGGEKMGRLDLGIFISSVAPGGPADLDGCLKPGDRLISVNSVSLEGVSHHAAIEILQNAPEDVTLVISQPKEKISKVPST
Assay: holdup assay
Set-up: key: below the threshold = too weak to quantify, mostly under pKd 3.1 to 4
Settings: plain residues with an end cap or a label only (N-terminal biotin on a linker: ado-ado)

Binder	pKd
NASRTRITFV [MCM7, P33993]	below the threshold
QSPPNIYYKV [EFNB3, Q15768]	below the threshold
PAPGQHTTQI [STK16, O75716]	below the threshold

Target: PTPN3, P26045
Sequence (P26045 505-587): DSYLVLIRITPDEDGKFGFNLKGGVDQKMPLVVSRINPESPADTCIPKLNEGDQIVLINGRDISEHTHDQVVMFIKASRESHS
Assay: holdup assay
Set-up: key: below the threshold = too weak to quantify, mostly under pKd 3.1 to 4
Settings: plain residues with an end cap or a label only (N-terminal biotin on a linker: ado-ado)

Binder	pKd
NASRTRITFV [MCM7, P33993]	4.71
QSPPNIYYKV [EFNB3, Q15768]	4.05
PAPGQHTTQI [STK16, O75716]	4.21

Target: T8, RADIL, Q96JH8
T8 sequence (Q96JH8 971-1071, limits assumed, looked up): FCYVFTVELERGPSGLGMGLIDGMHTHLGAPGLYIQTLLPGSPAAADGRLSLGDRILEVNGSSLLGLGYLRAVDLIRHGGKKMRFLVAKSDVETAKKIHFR
Assay: holdup assay
Set-up: key: below the threshold = too weak to quantify, mostly under pKd 3.1 to 4
Settings: plain residues with an end cap or a label only (N-terminal biotin on a linker: ado-ado)

Binder	pKd
NASRTRITFV [MCM7, P33993]	5.81
QSPPNIYYKV [EFNB3, Q15768]	4.29
PAPGQHTTQI [STK16, O75716]	3.75

Target: T9, RHPN1, Q8TCX5
T9 sequence (Q8TCX5 508-602, limits assumed, looked up): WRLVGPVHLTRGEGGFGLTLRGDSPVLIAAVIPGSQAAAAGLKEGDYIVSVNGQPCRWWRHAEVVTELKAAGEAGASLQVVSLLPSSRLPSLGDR
Assay: holdup assay
Set-up: key: below the threshold = too weak to quantify, mostly under pKd 3.1 to 4
Settings: plain residues with an end cap or a label only (N-terminal biotin on a linker: ado-ado)

Binder	pKd
NASRTRITFV [MCM7, P33993]	4.48
QSPPNIYYKV [EFNB3, Q15768]	below the threshold
PAPGQHTTQI [STK16, O75716]	4.35

Target: SCRIB_2, Q14160
Sequence (Q14160 857-960): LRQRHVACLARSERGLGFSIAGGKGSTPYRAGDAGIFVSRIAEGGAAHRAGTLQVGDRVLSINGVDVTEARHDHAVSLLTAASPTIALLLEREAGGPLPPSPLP
Assay: holdup assay
Set-up: key: below the threshold = too weak to quantify, mostly under pKd 3.1 to 4
Settings: plain residues with an end cap or a label only (N-terminal biotin on a linker: ado-ado)

Binder	pKd
NASRTRITFV [MCM7, P33993]	below the threshold
QSPPNIYYKV [EFNB3, Q15768]	below the threshold
PAPGQHTTQI [STK16, O75716]	below the threshold

Target: T10, SNTG1, Q9NSN8
T10 sequence (Q9NSN8 52-150, limits assumed, looked up): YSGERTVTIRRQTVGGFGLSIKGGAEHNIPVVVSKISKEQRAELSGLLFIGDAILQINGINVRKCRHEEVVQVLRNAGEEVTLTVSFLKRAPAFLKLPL
Assay: holdup assay
Set-up: key: below the threshold = too weak to quantify, mostly under pKd 3.1 to 4
Settings: plain residues with an end cap or a label only (N-terminal biotin on a linker: ado-ado)

Binder	pKd
NASRTRITFV [MCM7, P33993]	3.71
QSPPNIYYKV [EFNB3, Q15768]	below the threshold
PAPGQHTTQI [STK16, O75716]	below the threshold

Target: T11, SNTG2, Q9NY99
T11 sequence (Q9NY99 68-166, limits assumed, looked up): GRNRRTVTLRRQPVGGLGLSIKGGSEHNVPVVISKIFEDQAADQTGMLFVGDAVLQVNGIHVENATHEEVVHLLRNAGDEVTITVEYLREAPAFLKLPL
Assay: holdup assay
Set-up: key: below the threshold = too weak to quantify, mostly under pKd 3.1 to 4
Settings: plain residues with an end cap or a label only (N-terminal biotin on a linker: ado-ado)

Binder	pKd
NASRTRITFV [MCM7, P33993]	3.84
QSPPNIYYKV [EFNB3, Q15768]	3.7
PAPGQHTTQI [STK16, O75716]	below the threshold

Target: TJP1_3, Q07157
Sequence (Q07157 416-512): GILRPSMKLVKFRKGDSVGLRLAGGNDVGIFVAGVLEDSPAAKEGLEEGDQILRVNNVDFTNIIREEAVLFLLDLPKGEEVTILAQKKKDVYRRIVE
Assay: holdup assay
Set-up: key: below the threshold = too weak to quantify, mostly under pKd 3.1 to 4
Settings: plain residues with an end cap or a label only (N-terminal biotin on a linker: ado-ado)

Binder	pKd
NASRTRITFV [MCM7, P33993]	below the threshold
QSPPNIYYKV [EFNB3, Q15768]	below the threshold
PAPGQHTTQI [STK16, O75716]	below the threshold
